Columns and labels:
Test in all cases: cell-based or functional assay
[1] = biological target: HIV-1 Env of pseudovirus 0815.v3.c3 (HIV-1)
[2] = biological target: HIV-1 Env of pseudovirus 191084 B7-19 (HIV-1)
[3] = biological target: HIV-1 Env of pseudovirus 191955_A11 (HIV-1)
[4] = biological target: HIV-1 Env of pseudovirus 211-9 (HIV-1)
[5] = biological target: HIV-1 Env of pseudovirus 231966.c02 (HIV-1)
[6] = biological target: HIV-1 Env of pseudovirus 235-47 (HIV-1)
[7] = biological target: HIV-1 Env of pseudovirus 263-8 (HIV-1)
[8] = biological target: HIV-1 Env of pseudovirus 3016.v5.c45 (HIV-1)
[9] = biological target: HIV-1 Env of pseudovirus 3103.v3.c10 (HIV-1)
[10] = biological target: HIV-1 Env of pseudovirus 3301.v1.c24 (HIV-1)
[11] = biological target: HIV-1 Env of pseudovirus 3817.v2.c59 (HIV-1)
[12] = biological target: HIV-1 Env of pseudovirus 6041.v3.c23 (HIV-1)
[13] = biological target: HIV-1 Env of pseudovirus 620345.c01 (HIV-1)
[14] = biological target: HIV-1 Env of pseudovirus 6480.v4.c25 (HIV-1)
[15] = biological target: HIV-1 Env of pseudovirus 6540.v4.c1 (HIV-1)
[16] = biological target: HIV-1 Env of pseudovirus 6545.v4.c1 (HIV-1)
[17] = biological target: HIV-1 Env of pseudovirus 6811.v7.c18 (HIV-1)
[18] = biological target: HIV-1 Env of pseudovirus 6952.v1.c20 (HIV-1)
[19] = biological target: HIV-1 Env of pseudovirus 89-F1_2_25 (HIV-1)
[20] = biological target: HIV-1 Env of pseudovirus 9004SS_A3_4 (HIV-1)
[21] = biological target: HIV-1 Env of pseudovirus 928-28 (HIV-1)
[22] = biological target: HIV-1 Env of pseudovirus A07412M1.vrc12 (HIV-1)
[23] = biological target: HIV-1 Env of pseudovirus BJOX010000.06.2 (HIV-1)
[24] = biological target: HIV-1 Env of pseudovirus BJOX025000.01.1 (HIV-1)
[25] = biological target: HIV-1 Env of pseudovirus C1080.c03 (HIV-1)
[26] = biological target: HIV-1 Env of pseudovirus C3347.c11 (HIV-1)
[27] = biological target: HIV-1 Env of pseudovirus C4118.c09 (HIV-1)
[28] = biological target: HIV-1 Env of pseudovirus P0402_c2_11 (HIV-1)
[29] = biological target: HIV-1 Env of pseudovirus R1166.c01 (HIV-1)
[30] = biological target: HIV-1 Env of pseudovirus R2184.c04 (HIV-1)
[31] = biological target: HIV-1 Env of pseudovirus R3265.c06 (HIV-1)
[32] = biological target: HIV-1 Env of pseudovirus T251-18 (HIV-1)
[33] = biological target: HIV-1 Env of pseudovirus T255-34 (HIV-1)
[34] = biological target: HIV-1 Env of pseudovirus T278-50 (HIV-1)
[35] = biological target: HIV-1 Env of pseudovirus X1193_c1 (HIV-1)
[36] = biological target: HIV-1 Env of pseudovirus X2088_c9 (HIV-1)
[37] = biological target: HIV-1 Env of pseudovirus X2131_C1_B5 (HIV-1)

## N49P7.1 (antibody)
[1]
  IC50 (neutralisation, TZM.bl cells): 0.023 µg/mL
  IC80 (neutralisation, TZM.bl cells): 0.064 µg/mL
  MPI: 100
[2]
  IC50: 0.069 µg/mL
  IC80: 0.2 µg/mL
  MPI: 100
[3]
  IC50: 1.99 µg/mL
  IC80: 10.1 µg/mL
  MPI: 98
[4]
  IC50: 0.34 µg/mL
  IC80: 1.17 µg/mL
  MPI: 100
[5]
  IC50 (neutralisation, TZM.bl cells): 0.203 µg/mL
  IC80 (neutralisation, TZM.bl cells): 0.705 µg/mL
  MPI: 100
[6]
  IC50: 0.078 µg/mL
  IC80: 0.419 µg/mL
  MPI: 97
[7]
  IC50: 0.104 µg/mL
  IC80: 0.392 µg/mL
  MPI: 100
[8]
  IC50 (neutralisation, TZM.bl cells): 0.559 µg/mL
  IC80 (neutralisation, TZM.bl cells): 2.54 µg/mL
  MPI: 100
[9]
  IC50 (neutralisation, TZM.bl cells): 0.229 µg/mL
  IC80 (neutralisation, TZM.bl cells): 0.772 µg/mL
  MPI: 100
[10]
  IC50 (neutralisation, TZM.bl cells): 0.041 µg/mL
  IC80 (neutralisation, TZM.bl cells): 0.111 µg/mL
  MPI: 100
[11]
  IC50 (neutralisation, TZM.bl cells): 1.48 µg/mL
  IC80 (neutralisation, TZM.bl cells): 8.36 µg/mL
  MPI: 97
[12]
  IC50 (neutralisation, TZM.bl cells): 0.078 µg/mL
  IC80 (neutralisation, TZM.bl cells): 0.366 µg/mL
  MPI: 100
[13]
  IC50: > 50 µg/mL
  IC80: > 50 µg/mL
  MPI: 47
[14]
  IC50 (neutralisation, TZM.bl cells): 0.056 µg/mL
  IC80 (neutralisation, TZM.bl cells): 0.192 µg/mL
  MPI: 100
[15]
  IC50 (neutralisation, TZM.bl cells): 14.7 µg/mL
  IC80 (neutralisation, TZM.bl cells): > 50 µg/mL
  MPI: 75
[16]
  IC50 (neutralisation, TZM.bl cells): 1.15 µg/mL
  IC80 (neutralisation, TZM.bl cells): 16 µg/mL
  MPI: 92
[17]
  IC50 (neutralisation, TZM.bl cells): 0.321 µg/mL
  IC80 (neutralisation, TZM.bl cells): 1.46 µg/mL
  MPI: 100
[18]
  IC50 (neutralisation, TZM.bl cells): 26.3 µg/mL
  IC80 (neutralisation, TZM.bl cells): > 50 µg/mL
  MPI: 71
[19]
  IC50 (neutralisation, TZM.bl cells): 41.6 µg/mL
  IC80 (neutralisation, TZM.bl cells): > 50 µg/mL
  MPI: 58
[20]
  IC50: 0.221 µg/mL
  IC80: 0.841 µg/mL
  MPI: 100
[21]
  IC50: 0.23 µg/mL
  IC80: 0.775 µg/mL
  MPI: 100
[22]
  IC50 (neutralisation, TZM.bl cells): 0.232 µg/mL
  IC80 (neutralisation, TZM.bl cells): 1.07 µg/mL
  MPI: 100
[23]
  IC50: 0.132 µg/mL
  IC80: 0.623 µg/mL
  MPI: 100
[24]
  IC50: 0.057 µg/mL
  IC80: 0.378 µg/mL
  MPI: 100
[25]
  IC50: 0.144 µg/mL
  IC80: 1.05 µg/mL
  MPI: 100
[26]
  IC50: 0.048 µg/mL
  IC80: 0.161 µg/mL
  MPI: 100
[27]
  IC50: 0.048 µg/mL
  IC80: 0.216 µg/mL
  MPI: 100
[28]
  IC50: 0.029 µg/mL
  IC80: 0.115 µg/mL
  MPI: 100
[29]
  IC50: 0.136 µg/mL
  IC80: 0.461 µg/mL
  MPI: 100
[30]
  IC50: 0.018 µg/mL
  IC80: 0.04 µg/mL
  MPI: 100
[31]
  IC50: 0.059 µg/mL
  IC80: 0.328 µg/mL
  MPI: 100
[32]
  IC50: 0.229 µg/mL
  IC80: 0.794 µg/mL
  MPI: 100
[33]
  IC50: 0.094 µg/mL
  IC80: 0.447 µg/mL
  MPI: 100
[34]
  IC50: 42.4 µg/mL
  IC80: > 50 µg/mL
  MPI: 56
[35]
  IC50: 0.035 µg/mL
  IC80: 0.144 µg/mL
  MPI: 100
[36]
  IC50: 0.199 µg/mL
  IC80: 0.726 µg/mL
  MPI: 100
[37]
  IC50 (neutralisation, TZM.bl cells): 0.129 µg/mL
  IC80 (neutralisation, TZM.bl cells): 0.431 µg/mL
  MPI: 100
